The record followed here is publication doi:10.1101/2023.12.14.571518 (bioRxiv, 2023).

The data set “cryo-EM structure” concerns the molecule itself. In words: cryo-EM structure.
For a further data set, the target named is MZT2:GST-GCP2-NHD (human, UniProt Q6P582 1-158; Q9BSJ2 1-110). Kind of data set: pull-down.

Where only a bound is given, the exact number is not on record here.

Chain of MZT2:GST-GCP2-NHD (Q6P582 whole entry, chain 1 of 2): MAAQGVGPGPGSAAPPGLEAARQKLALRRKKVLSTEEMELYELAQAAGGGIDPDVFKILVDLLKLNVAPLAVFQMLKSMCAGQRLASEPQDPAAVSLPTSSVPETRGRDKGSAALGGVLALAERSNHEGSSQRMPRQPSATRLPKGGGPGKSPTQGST
Chain of MZT2:GST-GCP2-NHD (Q9BSJ2 1-110, chain 2 of 2): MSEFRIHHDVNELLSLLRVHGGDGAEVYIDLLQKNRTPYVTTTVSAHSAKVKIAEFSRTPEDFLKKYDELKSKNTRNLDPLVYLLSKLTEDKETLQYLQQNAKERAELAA

With TVSPTRARNMKDFENQITELKKENFNLKLRIYFLEERMQQEFHGPTEHIY (domain or fragment, human, UniProt Q96SN8 51-100, looked up) [CDK5RAP2(51-100)], the binding result in the data set “cryo-EM structure” is on record as “binds”.

B1: CDK5RAP2(44-93) (domain or fragment, human)
chain: SNIGSGGTPSTGSSLPNVSEETVSPTRARNMKDFENQITELKKENFNLKLRIYFLEERMQQEFH
In general, Kd refers to the equilibrium constant for the complex coming apart. Low values mean a tighter complex, high ones a looser complex. Regarding B1, in the data set with MZT2:GST-GCP2-NHD, the dissociation constant (Kd) was ≥ 10 µM.
